41 sequences from the nanobody polyreactivity screen of Harvey et al. (2022) can be followed below.

A short description of the series: yeast display, Sf9 membrane polyspecificity reagent, FACS + sequencing; frameworks hold sequencing errors. Put shortly: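 In a synthetic yeast display library (Saccharomyces cerevisiae BJ5465), nanobody expression was induced with galactose for 36–48 hours. FACS gates were set low and high (top ~1%) using anti-HA fluorescence for expression and streptavidin fluorescence for binding of the Sf9 membrane reagent. Each polyreactivity label is drawn from the gate of origin.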
Regarding “QVQLVESGGGLVQAGGSLRLSCAASGSTLYKYAMGWYRQAPGKEREFVAAISWSGSSTYYADSVKGRFTISRDNAKNTVYLQMNSLKPEDTAVYYCAALYTHYYWIEYDYWGQGTQVTVSS”, the “polyreactivity (PSR sort gate)” value is reported as “low polyreactivity”.
In the case of “QVQLVESGGGLVQAGGSLRLSCAASGSTLYRYAMGWYRQAPGKERELVAAISSAGSTHYADSVKGRFTISRDNAKNTVYLQMNSLKTEDTAVYYCADKRYLKYGYWGQGTQVTVSS”, the “polyreactivity (PSR sort gate)” value is listed as “high polyreactivity”.
Then “QVQLVESGGGLVQAGGSLRLSCAASGSTLYRYAMGWYRQAPGKERELVATIRWSGGSTYYADSVKGRFTISRDNAKNTVYLQMNSLKPEDTAVYYCAKRSSYGSSGRYYYWGQGTQVTVSS”, with “high polyreactivity”.
As for “QVQLVESGGGLVQAGGSLRLSCAASGSTLYSYVMGWYRQAPGKERELVAAIRSSGGSTYYADSVKGRFTISRDNAKNTVYLQMNSLKPEDTAVYYCAKEWKVDVASKFLYHYYYWGQGTQVTVSS”, the “polyreactivity (PSR sort gate)” value was “high polyreactivity”.
As to “QVQLVESGGGLVQAGGSLRLSCAASGSTLYWNAMGWYRQAPGKERELVASITSSGGSTYYADSVKGRFTISRDNAKNTVYLQMNSLKPEDTAVYYCATESWWRYSEYYYWGQGTQVTVSS”, the “polyreactivity (PSR sort gate)” value is reported as “low polyreactivity”.
On to “QVQLVESGGGLVQAGGSLRLSCAASGSTLYWYAMGWYRQAPGKERELVAGISIGGRTNYADSVKGRFTISRDNAKNTVYLQMNSLKPEDTAVYYCNAENTYLGSRYRPYNYWGQGTQVTVSS”, for which the “polyreactivity (PSR sort gate)” value is given as “low polyreactivity”.
Then “QVQLVESGGGLVQAGGSLRLSCAASGSTQYKYAMGWNRQAPGKERELVAAISWSGSSTYYADSVKGRFTISRDNAKNTVYLQLNSLKREDTAVYYCAAYPRPYIGYTDGYVWYEFDYWGQGTQVTVSS”, with “low polyreactivity”; and “QVQLVESGGGLVQAGGSLRLSCAASGSTQYPYAMGWYRQAPGKERELDAAISWSGGSTYYADSVKGRFTISRDPAQNTVYLQMNSLNPEDTAVYYCAAVYHFQYGAYDYWGQGTQVTVSS”, with “high polyreactivity”.
For the sequence “QVQLVESGGGLVQAGGSLRLSCAASGSTQYSYAMGWYRQAPGKERELVAAINSGSNTYYADSVKGRFTISRDNAKNTVYLQMNSLKPEDTAVYYCAAKGIIYTGYDGARRAYGYWGQGTQVTVSS”, the “polyreactivity (PSR sort gate)” value is on record as “high polyreactivity”.
As for “QVQLVESGGGLVQAGGSLRLSCAASGSTRIYDMGCYRQAPAKERELVAAISSTGSTYYADSVKGRFTISRDNAKNTVYLQMNSLKPEDTAVYYCAAARYYRYDRYYSWGQGTQVTVTS”, the “polyreactivity (PSR sort gate)” value is “high polyreactivity”.
On to “QVQLVESGGGLVQAGGSLRLSCAASGSTRRYVMGWYRQAPGKERELVAVISRGGSTYYADSVKGRFTISRDNAKNTVNLQMNSLKPEDTAVYYCNVQPVIPRGGDYWGQGTQVTVSS”, for which the “polyreactivity (PSR sort gate)” value is listed as “high polyreactivity”.
Then “QVQLVESGGGLVQAGGSLRLSCAASGSTRYNAMGWYRQAPGKERELVAAINTSGGSTRYADSVKGRFTISRDNAKNPVYLQMNSLKPEDTAVYYCNAGNSIPGVQKVIVHGLDYWGQGTQVTVSS”, with “high polyreactivity”.
With “QVQLVESGGGLVQAGGSLRLSCAASGSTSDEYAMGWYRPAPGKERELVASISSDDTSTHYADSVKGRFTISRDNAKNTVYLQMNSLKPEDTAVYYCAARNTPAYIDYNYWGQGTQVTVSS”, the “polyreactivity (PSR sort gate)” value is “low polyreactivity”.
In the case of “QVQLVESGGGLVQAGGSLRLSCAASGSTSDINAMGLYRQAPGKERELVAVITDSSNTDYADSVKGRFTISRDNAKNTVYLQMNSLKPEDTAVYYCAADRDEPDPYDYWGQGTQVTVSS”, the “polyreactivity (PSR sort gate)” value is “low polyreactivity”.
Regarding “QVQLVESGGGLVQAGGSLRLSCAASGSTSDIYAMGWYRQAPGKEREFVAAISLTGGTTYYADSVKGRFTISCDNAKNTVYLQMNSLKPEDTAVYYCNADVGWWGYDDDYWGQGTQVTVSS”, the “polyreactivity (PSR sort gate)” value is recorded as “high polyreactivity”.
The entry for “QVQLVESGGGLVQAGGSLRLSCAASGSTSGQNAKGWYRQPPGNERELVAAISSSAGSTYADSVKGRFTISRDNAKNTVYLQMNSLKPEDTAVYYCNVPYYYTRGSYGYWGQGTQVTVSS” is “low polyreactivity”.
As for “QVQLVESGGGLVQAGGSLRLSCAASGSTSKWYAMGWYRQAPGKERELVAAITKTGGRTYYADSVKGRFTFSRDYAKNTVYLQMNSLKPEDTAVYYCAVEYLRGFIVIYDNWGQGTQVTVSS”, the “polyreactivity (PSR sort gate)” value is recorded as “high polyreactivity”.
With “QVQLVESGGGLVQAGGSLRLSCAASGSTSPIYAMGWYRQAPGKERELVAAINGVGSTNYADSVKGRFTISRDNAKNTVYLQMNSLKPEDTAVYYCNTRYSPGYQGTEVDYWGKGTQVTVSS”, the “polyreactivity (PSR sort gate)” value is listed as “low polyreactivity”.
Regarding “QVQLVESGGGLVQAGGSLRLSCAASGSTSPNAMGWYRQAPGKERELVAAIWSGGTYYADSVKGRFTISRDNAKNTVYLQMNSLKPEDTAVYYCAVTGVYRGFRYGYWGQGTQVTVSS”, the “polyreactivity (PSR sort gate)” value is “low polyreactivity”.
“QVQLVESGGGLVQAGGSLRLSCAASGSTSPRNAMGWYRQAPGKERELVAAISSGGRTNYADSVKARFTISRDNAKNTDYLQMNSLKREDTAVYYCAAEVQSTYWGQGTQVTVSS”: the “polyreactivity (PSR sort gate)” value was “low polyreactivity”.
The entry for “QVQLVESGGGLVQAGGSLRLSCAASGSTSQRNAMGWYRQAPGKERELVAAISRSGGSTSYADSVKGRFTISRDNAKNTVYLQMNSLKPEDTAVYYCNTDRRIYRVWYYYWGQGTQVTVSS” is “high polyreactivity”.
Then “QVQLVESGGGLVQAGGSLRLSCAASGSTSQRNAMGWYRQAPGKERELVAGITTSGGRTYYADSVKGRFTISRDNAKNTVYLQMNSLKPEDTAVYYCAARTQIWKYRGYYSWGQGTQVTVSS”, with “high polyreactivity”; and “QVQLVESGGGLVQAGGSLRLSCAASGSTSRGNAMGWYRQAPGKERELVAAISYIGGTTYYADSVKGRFTISRDNAKNTVYLQMNSLKPEDTAVYYCAADLYRSILKPDYDYWGQGTQVTVSS”, with “high polyreactivity”; and “QVQLVESGGGLVQAGGSLRLSCAASGSTSRLNAMGWYRQAPGKERELVAAISGSGGRTYYADSVKGRFTISRDTAKTTVYLQMNSQKPEDTAVYYCNAAYSAKVHPEMYYWGPGTQVTVSS”, with “high polyreactivity”.
“QVQLVESGGGLVQAGGSLRLSCAASGSTSSDYAMGWYRQPPGKERELVASISRSGGSTNYADSVKGRFTISRDNAKNTVYLQMNSLKPEDTAVYYCAARQSYRYYWGKGTQVTVSS”: the “polyreactivity (PSR sort gate)” value was “high polyreactivity”.
Take “QVQLVESGGGLVQAGGSLRLSCAASGSTSSLYTMGWYRQAPGKERELVAAITRSGGGTYYADSVKGRFTSSRDNAKNTVYLQMNSLKPEDTAVYYCAAVQSEGRMGYWGQGTQVTVSS”: the “polyreactivity (PSR sort gate)” value was “high polyreactivity”.
Then “QVQLVESGGGLVQAGGSLRLSCAASGSTSSTYSMGWYRQAPGKERELVATINWDGASTYYADSVKGRFTISRDNAKNTVYLQMNSLIPEDTAVYYCAAQSGAVHFLEDDYWGHGTQVTVSS”, with “low polyreactivity”; and “QVQLVESGGGLVQAGGSLRLSCAASGSTSSVYAMGWYRQAPGKEREFVASITRRTGITFYADSVKGRFTISRDNAKNTVYLQMNSLKPEDTAVYYCATRGGYPKGYGYLAFNYWGQGTQVTVSS”, with “high polyreactivity”; and “QVQLVESGGGLVQAGGSLRLSCAASGSTSTTYAMGWYRQAPWKERELVAAISWGGTRTYYADSVKGRFTISRDNAKNTVYLQMNSLKPEDTAVYYCNAGRRSSSGHYGYNYWGQGTQVTVSS”, with “high polyreactivity”.
The entry for “QVQLVESGGGLVQAGGSLRLSCAASGSTSVVNAMGWSRQAPGKERELVAVITISAVSTYYADSVKGRFTISRDNAKNTVYLQMNSLKPEDTAVYYCAARSYVIYDNFEYDYWGQGTQVTVSS” is “high polyreactivity”; for “QVQLVESGGGLVQAGGSLRLSCAASGSTSYDNAMGWYRQAPGKERELDASISSDGSTNYADSVKGRFTISRDNAKNTVYLQMNSLKPEDTAVYYCNVEVTRGLSHDPEYDYWGQGTQVTVSS” it is “low polyreactivity”; for “QVQLVESGGGLVQAGGSLRLSCAASGSTSYNAMGWYRQPPGKERELVAAITSSGGRTYYADSVKGRFTISRDNAKNTVYLQMNSLKPEDTAVYYCNAPTSARRQGKDYGYWGQGTQVTVSS” it is “high polyreactivity”.
The entry for “QVQLVESGGGLVQAGGSLRLSCAASGSTSYPYAMGWYIQAPGQERELVATINYSGARTYYADSVKGRFTISRDNAKNTVYFQMNSLKPEDTAVYYCAATVYWRLEHDYWGQGTQVTVSS” is “low polyreactivity”; for “QVQLVESGGGLVQAGGSLRLSCAASGSTSYRNAMGWYRQAPGIEREFVAAISWSGGSTYYADSVKGRFTISRDNAKNTVYLQMNSLKPEDTAVYYCATTVTQWGQGTQVTVSS” it is “low polyreactivity”.
With “QVQLVESGGGLVQAGGSLRLSCAASGSTSYRYAMGWYRQAPGKERELVAAIPWISDSTYYADSVKGRFTISRDNAKNTVVLQMNSLKQEDTAVYYCNTDPLVTTVTFNYWGQGTQVTVSS”, the “polyreactivity (PSR sort gate)” value is “low polyreactivity”.
Then “QVQLVESGGGLVQAGGSLRLSCAASGSTSYYNAMGWYRQAPGKERELVAAISYSGGRTYYADSVKGRFTISRDNAKNTVYLQMNSLKPEDTAVYYCAKTFRGQPYLRYRYYYWGQGTQVTVSS”, with “high polyreactivity”.
Then “QVQLVESGGGLVQAGGSLRLSCAASGSTVFKNTMGWYRQAPGKEREFVAAIRWSTSRTYYADSVKGRFTISRDNAKNTVYLQMNSLKPEDTAVSYCNAGTSLSRRYPEDYYWGQGTLVTVSS”, with “high polyreactivity”; and “QVQLVESGGGLVQAGGSLRLSCAASGSTVGSYAMGWYRQAPGKERELVAAITLRTDSTYYADSVKGRFTISRDNAKNTVYLQMNSLKPEETAVYYCARRYRYGYDYWGQGTQVTVSS”, with “low polyreactivity”; and “QVQLVESGGGLVQAGGSLRLSCAASGSTVGVNAMGWYRQAPGKERELVAALSNGDNTYYADSVKGRFTISRDHAKNTVYLQMNSLKPEDTAVYYCAADQYWSWIYYPVVESDYWGQGTQVTVSS”, with “low polyreactivity”.
The entry for “QVQLVESGGGLVQAGGSLRLSCAASGSTVKYAMGWYRQAPGKERELVAAISSRGGSTSYADSVNGRFTISRDNAKNTVYLQMNSLKPEDTAVYSCARRIRQQRFGGNYWGQGTQVTVSS” is “high polyreactivity”; for “QVQLVESGGGLVQAGGSLRLSCAASGSTVVYNVMGWYRQAPGKEREVVAAFRWRGGSTYADSVKGRFTISRDNAKNTVYLQMNCLKPEDTAVYYCAAGIPRYWYAGHYDYWGQGTQVTVSS” it is “low polyreactivity”.
